Tests used:
Experiment in all cases: competition EMSA; preferred substrate in mixture; 25 mM MOPS pH 7.0, 0.2% Tween-20, 1 mM CaCl2, 2 mM DTT; 25 nM 32P-DNA; 37 C 10 min, then 0.2% glutaraldehyde 15 min; 8% TBE acrylamide gel
Settings in all cases: protein: recombinant; tags: C-terminal 10xHis; N-terminal GST cleaved with PreScission; label: 32P on strand 3 (JYM1745); D-loop: 1:2 with unpaired bubble, 3 paired to 2 in the bubble
LiRad51-3 = target: T1, LiRad51-3 (Leishmania infantum, UniProt E9AHR7 1-687)
T1 sequence: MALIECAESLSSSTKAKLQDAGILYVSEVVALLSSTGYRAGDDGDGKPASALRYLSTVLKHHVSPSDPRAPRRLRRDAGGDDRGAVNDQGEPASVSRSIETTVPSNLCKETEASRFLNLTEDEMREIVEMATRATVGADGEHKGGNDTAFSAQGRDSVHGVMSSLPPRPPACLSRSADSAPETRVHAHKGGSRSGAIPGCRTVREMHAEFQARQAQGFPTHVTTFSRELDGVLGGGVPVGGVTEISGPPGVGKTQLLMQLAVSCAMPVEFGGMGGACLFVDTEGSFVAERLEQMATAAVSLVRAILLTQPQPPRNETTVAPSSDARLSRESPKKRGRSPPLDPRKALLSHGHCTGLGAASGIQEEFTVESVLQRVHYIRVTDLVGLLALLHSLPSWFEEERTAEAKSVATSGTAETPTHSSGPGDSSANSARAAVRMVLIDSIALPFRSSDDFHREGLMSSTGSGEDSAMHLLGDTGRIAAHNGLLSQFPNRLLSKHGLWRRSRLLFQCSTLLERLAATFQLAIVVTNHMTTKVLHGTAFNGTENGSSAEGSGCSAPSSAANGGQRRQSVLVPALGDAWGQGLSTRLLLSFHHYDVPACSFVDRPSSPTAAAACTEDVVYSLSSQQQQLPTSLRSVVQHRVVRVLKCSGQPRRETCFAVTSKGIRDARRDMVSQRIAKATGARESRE

LiRad51-4 = target: T2, LiRad51-4 (Leishmania infantum, UniProt A4HUT5 1-518)
T2 sequence: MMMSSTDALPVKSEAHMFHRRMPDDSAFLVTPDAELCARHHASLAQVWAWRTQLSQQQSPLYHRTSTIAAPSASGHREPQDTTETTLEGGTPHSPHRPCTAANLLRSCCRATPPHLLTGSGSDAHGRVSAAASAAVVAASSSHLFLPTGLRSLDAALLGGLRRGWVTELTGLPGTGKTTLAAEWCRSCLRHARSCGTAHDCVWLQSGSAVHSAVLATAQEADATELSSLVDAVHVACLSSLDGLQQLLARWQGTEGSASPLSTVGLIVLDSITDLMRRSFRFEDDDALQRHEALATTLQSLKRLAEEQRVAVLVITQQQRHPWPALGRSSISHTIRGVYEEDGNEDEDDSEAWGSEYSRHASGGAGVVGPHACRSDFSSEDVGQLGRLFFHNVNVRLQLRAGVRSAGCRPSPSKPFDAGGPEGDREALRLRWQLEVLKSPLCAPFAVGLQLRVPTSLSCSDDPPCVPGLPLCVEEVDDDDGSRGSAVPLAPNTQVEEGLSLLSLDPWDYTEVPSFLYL

LiRad51-6 = target: T3, LiRad51-6 (Leishmania infantum, UniProt A4I499 1-649)
T3 sequence: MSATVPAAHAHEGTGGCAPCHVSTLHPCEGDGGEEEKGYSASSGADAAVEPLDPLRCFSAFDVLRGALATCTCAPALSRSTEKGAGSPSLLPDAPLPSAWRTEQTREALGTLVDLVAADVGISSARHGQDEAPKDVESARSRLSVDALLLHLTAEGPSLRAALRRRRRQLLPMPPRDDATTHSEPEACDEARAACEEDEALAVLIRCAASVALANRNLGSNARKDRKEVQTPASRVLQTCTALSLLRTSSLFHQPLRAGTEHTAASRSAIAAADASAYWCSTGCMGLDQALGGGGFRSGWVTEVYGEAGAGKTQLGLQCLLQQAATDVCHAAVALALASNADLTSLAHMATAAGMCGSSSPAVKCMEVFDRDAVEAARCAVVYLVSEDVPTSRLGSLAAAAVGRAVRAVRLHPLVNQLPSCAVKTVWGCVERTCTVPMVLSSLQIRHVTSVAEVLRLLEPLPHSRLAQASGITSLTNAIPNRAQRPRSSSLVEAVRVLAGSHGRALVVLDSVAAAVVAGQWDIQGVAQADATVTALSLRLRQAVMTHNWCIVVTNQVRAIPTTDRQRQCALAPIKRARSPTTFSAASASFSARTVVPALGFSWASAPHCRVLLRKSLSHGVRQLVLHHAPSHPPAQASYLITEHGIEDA

Measured: binding result

B1: D-loop (JYM1395/JYM1396/JYM1745) (structured_DNA)
DNA 1: GCCAGGGACGGGGTGAACCTGCAGGTGGGCGGCTGCTCATCGTAGGTTAGTATCGACCTATTGGTAGAATTCGGCAGCGTCATGCGACGGC
DNA 2: GCCGTCGCATGACGCTGCCGAATTCTACCACGCTACTAGGGTGCCTTGCTAGGACATCTTTGCCCACCTGCAGGTTCACCCCGTCCCTGGC
DNA 3: AAGATGTCCTAGCAAGGCACCCTAGTAGC
binds: all assays above

Source: publication PMC4357719, “Roles of Rad51 paralogs for promoting homologous recombination in Leishmania infantum”
